Where two headings read alike, the source gives them in different places.
Legend:
Assay in all cases: immunoprecipitation and Western blot
[1] = molecular target: amyloid-β (Aβ) in brain tissue of Tg2576 mice (human)
[2] = molecular target: amyloid-β (Aβ) secreted by mature Tg2576 primary cortical neurons (human)
[3] = molecular target: amyloid-β (Aβ) secreted by mature Tg2576 primary cortical neurons (human); remark: listed apart in the source
[4] = molecular target: amyloid-β (Aβ) secreted by 7PA2 cells

amyloid-β (Aβ) in brain tissue of Tg2576 mice (peptide)
stoichiometry N [1]: 2

amyloid-β (Aβ) secreted by mature Tg2576 primary cortical neurons (peptide)
stoichiometry N [2]: 3
stoichiometry N [3]: 2

amyloid-β (Aβ) secreted by 7PA2 cells (peptide)
stoichiometry N [4]: 2
